Test system: WNT-responsive reporter gene
Test: Luciferase assay with synthetic WNT-reporter (10 copies of TCF/LEF motif)
Type: cell-based
Settings: overexpression in HEK293T cells
Protocol: (FIG. 56A) Schematic of the ChIP experiment. TdTomato-tagged wild type or aromatic mutant β-catenin were stably integrated in mES cells under a doxycycline-inducible promoter. Doxycycline was added to the media 24 hours prior to crosslinking. ChIP was preformed using antibodies against TdTomato. TRE=Tetracycline responsive element. (FIG. 56B) (Top) ChIP-qPCR of ectopically-expressed wild type or aromatic mutant β-catenin at Myc, Sp5, and Klf4 enhancers. Error bars indicate standard deviation of three replicates. Stars indicate p-values obtained by a t-test <0.05. (Bottom) RT-qPCR of mRNA levels after ectopic expression of wild type or aromatic mutant β-catenin of Myc, Sp5, and Klf4. Error bars indicate standard deviation of three replicates. Stars indicate p-values obtained by a t-test <0.05. (FIG. 56C) Luciferase assay using a synthetic WNT-reporter containing 10 copies of the consensus TCF/LEF motif were wild type or aromatic mutant β-catenin was overexpressed in HEK293T cells. Average of 3 biological replicates is shown. Error bars show the standard deviation. Star indicates p-value obtained by a t-test <0.05.
We independently tested the ability of the β-catenin aromatic mutant to transactivate a WNT-responsive reporter gene in a luciferase assay with wild type and mutant forms of β-catenin (FIG. 56C).

B1: wild type β-catenin: wild type β-catenin overexpressed in HEK293T cells (protein, UniProt P35222 2-781, looked up)
Catenin beta-1: ATQADLMELDMAMEPDRKAAVSHWQQQSYLDSGIHSGATTTAPSLSGKGNPEEEDVDTSQVLYEWEQGFSQSFTQEQVADIDGQYAMTRAQRVRAAMFPETLDEGMQIPSTQFDAAHPTNVQRLAEPSQMLKHAVVNLINYQDDAELATRAIPELTKLLNDEDQVVVNKAAVMVHQLSKKEASRHAIMRSPQMVSAIVRTMQNTNDVETARCTAGTLHNLSHHREGLLAIFKSGGIPALVKMLGSPVDSVLFYAITTLHNLLLHQEGAKMAVRLAGGLQKMVALLNKTNVKFLAITTDCLQILAYGNQESKLIILASGGPQALVNIMRTYTYEKLLWTTSRVLKVLSVCSSNKPAIVEAGGMQALGLHLTDPSQRLVQNCLWTLRNLSDAATKQEGMEGLLGTLVQLLGSDDINVVTCAAGILSNLTCNNYKNKMMVCQVGGIEALVRTVLRAGDREDITEPAICALRHLTSRHQEAEMAQNAVRLHYGLPVVVKLLHPPSHWPLIKATVGLIRNLALCPANHAPLREQGAIPRLVQLLVRAHQDTQRRTSMGGTQQQFVEGVRMEEIVEGCTGALHILARDVHNRIVIRGLNTIPLFVQLLYSPIENIQRVAAGVLCELAQDKEAAEAIEAEGATAPLTELLHSRNEGVATYAAAVLFRMSEDKPQDYKKRLSVELTSSLFRTEPMAWNETADLGLDIGAQGEPLGYRQDDPSYRSFHSGGYGQDALGMDPMMEHEMGGHHPGADYPVDGLPDLGHAQDLMDGLPPGDSNQLAWFDTDL
  increase in luciferase activity: 8 fold
